The assay has as its target T1, His6-tagged CTCF (human, UniProt P49711 1-727).
T1 construct: CTCF, human, codon-optimized for bacterial expression, in pET-15b; printed both as CTCF-His and His-CTCF; pET-15b usually adds an N-terminal His tag; also called His-CTCF; CTCF-His; source: E. coli BL21 (DE3), purified (Ni-NTA agarose)
T1 sequence (looked up): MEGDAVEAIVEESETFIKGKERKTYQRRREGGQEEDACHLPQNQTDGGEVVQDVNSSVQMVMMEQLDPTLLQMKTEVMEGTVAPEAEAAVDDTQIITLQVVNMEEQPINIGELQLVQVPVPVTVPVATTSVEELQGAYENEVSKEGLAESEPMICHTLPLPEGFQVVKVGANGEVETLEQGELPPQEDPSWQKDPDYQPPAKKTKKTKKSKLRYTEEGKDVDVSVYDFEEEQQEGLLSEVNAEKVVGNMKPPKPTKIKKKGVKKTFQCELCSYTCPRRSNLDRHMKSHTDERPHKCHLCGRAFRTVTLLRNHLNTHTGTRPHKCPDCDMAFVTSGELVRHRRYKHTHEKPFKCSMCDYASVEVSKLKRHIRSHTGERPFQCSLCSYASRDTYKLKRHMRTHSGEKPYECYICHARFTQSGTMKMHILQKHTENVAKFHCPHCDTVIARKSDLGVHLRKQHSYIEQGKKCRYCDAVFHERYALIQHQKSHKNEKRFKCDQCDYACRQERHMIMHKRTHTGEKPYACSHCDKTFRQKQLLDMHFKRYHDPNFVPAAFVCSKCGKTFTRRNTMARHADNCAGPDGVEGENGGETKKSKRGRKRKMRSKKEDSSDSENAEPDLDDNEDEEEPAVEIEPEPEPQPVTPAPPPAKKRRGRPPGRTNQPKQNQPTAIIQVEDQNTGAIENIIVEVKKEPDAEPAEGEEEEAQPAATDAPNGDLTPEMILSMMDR
Description: pull-down; in vitro STREP pull-down: 5 nM purified His-CTCF alone or with STREP-HSF1 in 1 ml Buffer NP (50 mM NaH2PO4, 300 mM NaCl, pH 8.0), 1 h at 4 °C, MagStrep type 3 XT resin, five washes, eluted with 25 mM desthiobiotin; immunoblot. Conditions: both partners purified.

B1: STREP-HSF1 (natural protein, human, UniProt Q00613 1-529, looked up)
chain: MDLPVGPGAAGPSNVPAFLTKLWTLVSDPDTDALICWSPSGNSFHVFDQGQFAKEVLPKYFKHNNMASFVRQLNMYGFRKVVHIEQGGLVKPERDDTEFQHPCFLRGQEQLLENIKRKVTSVSTLKSEDIKIRQDSVTKLLTDVQLMKGKQECMDSKLLAMKHENEALWREVASLRQKHAQQQKVVNKLIQFLISLVQSNRILGVKRKIPLMLNDSGSAHSMPKYSRQFSLEHVHGSGPYSAPSPAYSSSSLYAPDAVASSGPIISDITELAPASPMASPGGSIDERPLSSSPLVRVKEEPPSPPQSPRVEEASPGRPSSVDTLLSPTALIDSILRESEPAPASVTALTDARGHTDTEGRPPSPPPTSTPEKCLSVACLDKNELSDHLDAMDSNLDNLQTMLSSHGFSVDTSALLDLFSPSVTVPDMSLPDLDSSLASIQELLSPQEPPRPPEAENSSPDSGKQLVHYTAQPLFLLDPGSVDTGSNDLPVLFELGEGSYFSEGDGFAEDPTISLLTGSEPPKAKDPTVS
notes: HSF1, human, codon-optimized for bacterial expression; also called STREP-tagged HSF1; source: E. coli BL21 (DE3), purified (StrepTrap column)
For the molecule B1, the binding result was “binds”.

The values are drawn from paper PMC7948500, “Comparative interactomes of HSF1 in stress and disease reveal a role for CTCF in HSF1-mediated gene regulation” (The Journal of Biological Chemistry, 2020).
